According to the RNAGym collection of RNA variant scans (doi:10.1073/pnas.2313332121):

B1: TPR t1 (parent)
chain: GACCAAUCUGCCCUCAGAGCUCGAGAACAUCUUCGGAUGCAGAGGAGGCAGGCUUCGGUGGCGCGAUAGCGCCAACGUCCUCAACCUCCAAUGCAUCCCACCACAUGAUGAUGCCUGAAGAGCCUUGGUUUUUUG

Variants of: B1
Experiment: polymerase ribozyme fitness, log enrichment relative to wild type (log ratio); higher = more active; in vitro selection for triplet polymerase activity
Outline: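 Mutant libraries of both subunits of a heterodimeric triplet polymerase ribozyme were PCR-built, transcribed, and selected once in triplicate, with frozen incubation at −7 °C and capture of gel-excised extended constructs on streptavidin beads before RT-PCR. Illumina sequencing of input and output libraries was filtered to genotypes with ≥10 input reads and ≥1 read per output. Fitness is the logarithm of genotype enrichment over wild-type enrichment, using inverse-variance-weighted replicate averages. The logarithm is base 2.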

| Variant | polymerase ribozyme fitness (log ratio) |
| --- | --- |
| A2U C4U G39C G44U G61A A83G C89U A121U | -2.89 |
| U33C C124U | -3.97 |
| C11U A43U C53G G120A | -1.5 |
| A2U G60U | -1.99 |
| C15A U54A C56A | -2.64 |
| C15U G127U | -2.39 |
| C11U A41U G52U U125A | -3.07 |
| U7C U14G A74C | -1.29 |
| C49U G51U U78G C79G U109G C124G | -6.06 |
| A6C U38A C115A | -1.35 |
| C3U C4A C53G C62U C88U A90C C123A U130C | -0.74 |
| C12U A16U C22G C99U | -3.39 |
| U55C A66G A90U | -4.46 |
| G107A U132A | -5.08 |
| G42A C72A | -1.98 |
| G19U G39C C53U G71U U81A G93U C114A | -4.82 |
| C62A C123U | 0.181 |
| C89U U133A | -0.271 |
| A5G A16C A41G C62U | -2.75 |
| A18C C89G | -2.48 |
| A83C A95U U116C | -1.65 |
| C13U U109A | -5.03 |
| C56G C124A | 1.73 |
| G42U G58C U87C | -0.174 |

| Variant | polymerase ribozyme fitness (log ratio) |
| --- | --- |
| A6G U7G G44U G58C G113A | -0.812 |
| A41C C80U | -1.79 |
| G10U C11U C73A C88A U126C | -2.02 |
| G10A A27G C76U C94A | -5.09 |
| U7C G23U A29G G60U G117A G128U | -6.24 |
| C3U G52U G57U C82A G122A | -3.12 |
| G17A A74U | -4.06 |
| C11A U30C G47A G63A A121G U131A | -3.75 |
| A29U C76A | -1.91 |
| G51A G61U G128C | -5 |
| U7C C8G U21C C62G U78A | -1.85 |
| C3U C13A G61A C98U | -3.6 |
| C12G C22U G63A U87A | -4.98 |
| U33G C73G G93U A121G | -5.53 |
| U81C C88A A90U C104G G120U | -7.44 |
| C49G C80U C85G | -2.11 |
| G19A U116G | -6.24 |
| C115U C124U | -1.17 |
| A18U U38G C56U C114A G135U | -2.6 |
| C11A G60U G71C U87C U112C G117A U130C | -7.15 |
| A105G A121C | -0.542 |
| C34A U129C | -3.48 |
| C11U C124U | 1.63 |
| C22A U78C | -6.19 |

| Variant | polymerase ribozyme fitness (log ratio) |
| --- | --- |
| G25A G44U G52U C62U A105G U112A | -7.09 |
| C12U U38C G42U G61A U96A G122U | -4.37 |
| G17A U96C | -3.36 |
| C70U U112A U116A | -1.48 |
| G61A C85U G117A U129C | -2.75 |
| C20A G61C U133G | -4.9 |
| A5G U81A | -0.807 |
| C56G C70U C88U U106A | -2.44 |
| G45U G77C | -1.17 |
| U14C C53A | -1.96 |
| G52U C104A | -2.28 |
| G57C G107C | -6.59 |
| A95C C102A U133A G135C | -2.89 |
| A26U A46U G61A | -3.77 |
| C8G C85A C124U | 1.24 |
| U38A A50U C123G U133A | -0.425 |
| C56G G135C | -0.404 |
| A5G C28G U78A U96C G110U | -0.656 |
| C12U C80U C102U | -2.35 |
| C12A A37U | -1.73 |
| C15U G35A A66U U109A U116A | -5.44 |
| G61A C80U | -1.03 |
| A29G C94A | -2.09 |
| C15G G48C C85U G122A | -3.3 |

| Variant | polymerase ribozyme fitness (log ratio) |
| --- | --- |
| C86G G122U | -1.75 |
| C82G U106A | -0.594 |
| C34U G42C | -6.44 |
| A41C U133G | -1.16 |
| G60U G71U | -1.98 |
| G44U C114U U132A | -2.69 |
| C70U U81A | -3.3 |
| C31G A37U G71A C76U U78G A105C G110C | -6.15 |
| A6G C12A C56A C72A | -1.87 |
| C40U G61A | -0.522 |
| U9G U109A G120C | -4.55 |
| A121U U129G | 1.22 |
| U9C G63C U96G C97A C123A | -3.72 |
| C3U G39U U81C A111C | -2.34 |
| A6U U96C C101U G122A | -0.932 |
| C12A A66C U78A | -2.43 |
| G52A C73G | -2.63 |
| G19A G35C C53G C114G | -6.59 |
| G45A C72A U92G | -2.71 |
| G44C U78C C115G C123U | -4.64 |
| A6G C8U C49G C70A U78C | -3.15 |
| C15G A83G G120C | -2.3 |
| A2C | -1.4 |
| G10A C12U U14C C56G G63C G117U U129A | -3.92 |

| Variant | polymerase ribozyme fitness (log ratio) |
| --- | --- |
| U96C C114U | -2.44 |
| G17C A83G U116G | -5.65 |
| A16C U33C C62G U81A A108G G120A C123G | -6.36 |
| G57C U78C U87C C102A C124A | -0.477 |
| G44C U87A | -1.07 |
| C94A A118U | -0.204 |
| A41U C49G | -2.03 |
| C11G C49A C62A | -0.975 |
| G45U G117U | -3.43 |
| G63A C80U | -1.54 |
| G39A C70U | -0.985 |
| C3U C13A G69U A121G | 1.51 |
| C40G A43U U54G | -2.72 |
| G44A U92G | -3.27 |
| G19A C73U C82U C114A | -1.84 |
| A37G G48A C56G G71U G117C | -6.21 |
| C82U G128C | -2.07 |
| G42U G52A C72U U78A G128U | -4.36 |
| C22A C115U | -6.25 |
| C8G C15U C62U C89G G93A C101U G113C C114U G127C | -4.12 |
| C3A C13U C73U | -1.44 |
| C12A A75G | -0.0398 |
| A26C G39U C114G | -6.59 |
| A5C G120A | 0.639 |

| Variant | polymerase ribozyme fitness (log ratio) |
| --- | --- |
| C85G C89U G110U | -2.09 |
| G52A G61A C79G | -0.673 |
| G19C A66C C114U U116C | -3.53 |
| G47U G71A C104U | -2.44 |
| C12U G48U C94U | -1.04 |
| C8G G45U | -1.39 |
| C64U U112G | -0.0625 |
| A18U C56U | -1.72 |
| C72U U116C | -0.368 |
| A26C A46C C115G | -6.72 |
| U59A C76U | -0.808 |
| A2C C28U U87C | -3.82 |
| A41U U109G | -6.03 |
| C3A C11A A16U C49A G117A | -4.16 |
| U54G G60A U87A A95G G110C | -6.6 |
| C49U G113C | -3.45 |
| A43U C76U C123G | -0.376 |
| A46U C123U | 0.165 |
| A50U C88U A118U | -0.957 |
| U54C U87A | 0.213 |
| G52U C72U U78C | -0.804 |
| C73U A95C | -1.16 |
| C13G G52C G71A | -3.97 |
| A6G C123A | 1.64 |

| Variant | polymerase ribozyme fitness (log ratio) |
| --- | --- |
| C4A C49G A83G C88A C102U G120C | -5.38 |
| U38A G45A U129C | -2.96 |
| A46C G63A U96A | -2.58 |
| G39A A46U C64U | -2.95 |
| C76A A90G | -0.633 |
| C40G C86G | -2.86 |
| U9C G47C G71U | -2.13 |
| G10A U87G G110U | -1.12 |
| A6U U9A A26U | -1.87 |
| A83G U129G | -1.68 |
| A84U C88G C115U U126A | -3.84 |
| C12U A27G C28G G69U | -2.22 |
| G10U C40G G52C C98U C123U | -2.05 |
| G17C C104A | -6.53 |
| A6U G60U G110U | -0.996 |
| C56A G110C | -2.63 |
| C4U A43U C70U | -3.47 |
| G10U G63A | -1.08 |
| U14C C15U G39A G117A | -0.915 |
| G63C U109C | -4.03 |
| C3A G36A G71C C123G | -1.87 |
| C40U G45A U78G U81A | -2.5 |
| G44A C56U A84C G120C | -0.295 |
